Experiment [1] concerns the target T1, recombinant soluble human IL-6R (human, UniProt P08887 20-365).
T1 construct: also called sIL-6R; shIL-6R
T1 sequence: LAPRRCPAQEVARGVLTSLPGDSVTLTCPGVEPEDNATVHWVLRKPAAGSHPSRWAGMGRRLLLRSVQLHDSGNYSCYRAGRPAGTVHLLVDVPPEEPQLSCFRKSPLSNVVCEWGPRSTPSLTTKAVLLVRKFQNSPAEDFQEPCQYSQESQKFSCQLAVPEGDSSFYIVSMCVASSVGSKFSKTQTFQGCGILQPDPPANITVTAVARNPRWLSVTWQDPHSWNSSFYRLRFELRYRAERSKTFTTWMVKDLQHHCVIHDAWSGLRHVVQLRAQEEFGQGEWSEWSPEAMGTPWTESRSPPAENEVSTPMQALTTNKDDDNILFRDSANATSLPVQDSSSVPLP
Put plainly: standard gp130 ELISA (competition); column 'Potency'. Background: ELISA stands for enzyme-linked immunosorbent assay.

The target of experiment [2] is T2, membrane-bound human IL-6R on TF-1 cells (human, UniProt P08887 20-468).
T2 sequence: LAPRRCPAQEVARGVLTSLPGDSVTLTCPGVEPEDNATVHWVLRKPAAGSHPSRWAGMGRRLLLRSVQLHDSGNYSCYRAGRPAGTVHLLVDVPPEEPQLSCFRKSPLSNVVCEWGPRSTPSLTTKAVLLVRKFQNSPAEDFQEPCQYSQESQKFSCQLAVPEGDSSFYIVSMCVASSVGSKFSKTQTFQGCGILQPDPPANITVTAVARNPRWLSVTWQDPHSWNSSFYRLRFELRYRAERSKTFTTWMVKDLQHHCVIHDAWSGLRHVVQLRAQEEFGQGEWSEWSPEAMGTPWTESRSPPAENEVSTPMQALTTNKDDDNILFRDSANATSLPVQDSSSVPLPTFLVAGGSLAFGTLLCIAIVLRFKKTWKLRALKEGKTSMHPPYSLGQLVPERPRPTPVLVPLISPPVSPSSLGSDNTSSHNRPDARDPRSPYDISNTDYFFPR
Briefly: cell-based or functional assay.

Experiment [3] has as its target T3, cynomolgus monkey soluble IL-6R (from cynomolgus monkey serum) (cynomolgus monkey, UniProt P08887 20-365 (human entry)).
T3 construct: Natural soluble IL-6R present in diluted normal cynomolgus monkey serum; also called cyno IL6R; cynomolgous sIL-6R
T3 chain: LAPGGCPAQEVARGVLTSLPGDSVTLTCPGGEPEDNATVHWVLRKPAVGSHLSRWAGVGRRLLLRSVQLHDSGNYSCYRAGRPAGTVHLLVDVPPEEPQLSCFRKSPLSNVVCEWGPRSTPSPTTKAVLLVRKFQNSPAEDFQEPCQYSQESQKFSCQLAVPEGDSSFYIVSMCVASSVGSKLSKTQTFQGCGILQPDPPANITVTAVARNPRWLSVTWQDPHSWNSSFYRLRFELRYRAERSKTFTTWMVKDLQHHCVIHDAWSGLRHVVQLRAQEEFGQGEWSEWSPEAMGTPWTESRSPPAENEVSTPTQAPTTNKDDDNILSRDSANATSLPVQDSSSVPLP
Put plainly: ratio of gp130 ELISA IC50s on human and cynomolgus sIL-6R. The method, then:
(§1) The standard anti-cynomolgus monkey IL-6R gp130 ELISA assay detailed under ‘Potency, neutralisation and inhibition’ above was performed to assay the ICVDs in parallel for their ability to neutralise sIL6R in cynomolgous monkey serum and recombinant purified human sIL6R. Briefly, Maxisorp 96-well plates were coated overnight with 50 μl/well 1 μg/ml gp130 then blocked. ICVDs were serially diluted and mixed 1:1 with 200 ng/ml recombinant human IL-6, then 1:1 with either 20 ng/ml recombinant human sIL-6R or a 5-fold dilution of cynomolgus monkey serum and incubated for 1 hour to allow binding before adding to the gp130-coated plates. Bound cynomolgus monkey IL-6R was detected with 50 μl/well either 0.25 μg/ml (for human IL-6R) or 0.5 μg/ml (for monkey serum) BAF227 and then 50 μl/well 1/1000 Extravidin-HRP and the level of neutralisation by the ICVD of IL-6R binding to IL-6/gp130 was determined

The target in experiment [4] is T1, recombinant soluble human IL-6R. Put plainly: gp130 ELISA (competition), parallel human arm: 10 ng/mL human IL-6R, 50 ng/mL human IL-6. The method, then: as §1
For experiment [5], the target named is T3, cynomolgus monkey soluble IL-6R (from …). Put plainly: anti-cynomolgus IL-6R gp130 ELISA (competition): 10x diluted cynomolgus serum, 50 ng/mL human IL-6, coated human gp130. The method, then:
as §1

Experiment [6] concerns the target T1, recombinant soluble human IL-6R. Put plainly: gp130 ELISA (competition): inhibition of human sIL-6R/IL-6 complex binding to coated gp130; 20 ng/mL IL6R, 100 ng/mL IL6. The method, then: Briefly, Maxisorp 96-well plates were coated overnight with 50 μl/well 0.5 μg/ml gp130 then blocked. ICVDs were serially diluted and mixed 1:1 with 100 ng/ml recombinant human IL-6 then 1:1 with 40 ng/ml recombinant human sIL-6R, and incubated for 1 hour to allow binding before adding to the gp130-coated plates. Bound IL-6R was detected with 50 μl/well 0.250 μg/ml BAF227 and then 50 μl/well 1/1000 diluted Extravidin-HRP and the level of neutralisation by the ICVD of IL-6R binding to IL-6/gp130 was determined.
Dose response curves were obtained (dose response curves of particular ICVDs illustrated in FIG. 1). […] This was confirmed with curve-fitting software (Graphpad Prism), which fitted 4 parameter curves to the data and calculated the IC50s (Table 4.1, below).

The target in experiment [7] is T2, membrane-bound human IL-6R on TF-1 cells. Briefly: cell-based or functional assay. The source holds these as a separate data set.
Experiment [8] addresses T1, recombinant soluble human IL-6R. Briefly: standard gp130 ELISA (competition); 10 ng/mL IL-6R, 50 ng/mL IL-6; column 'Potency'. The method, then: Mutant 5G9 sequences were produced and tested for their potency in the standard gp130 ELISA. The standard gp130 ELISA has a final assay concentration of 10 ng/mL IL-6R and 50 ng/mL IL-6.

The source of these data is patent US20220380475A1 (SORRISO PHARMACEUTICALS, published 2022).

The term IC50 denotes the point on the concentration scale where inhibition reaches its midpoint.

B1: ID-3V (VHH)
VHH: EVQLVESGGGLVQAGGSTRLTCLASGSISSINVIGWYRQAPGKQRELVAMIGRGEGANYGDFAKGRFTISRDNSKNTVYLQMNSLKPEDTAVYYCYADYEDHDSPFNGSWGQGTQVTVSS
notes: Mutant of 7F6; also called 7F6 + R102H; not shown: C-terminal Flag- and His-tags of E. coli constructs
For B1, the IC50 in experiment [1] is 0.16 nM.

B2: ID-50V (VHH)
VHH: EVQLVESGGGLVQAGGSTRLTCLASGSISSINVIGWYRQAPGKQRELVAMIGRGEGANYGDFAKGRFTISRDNSKNTVYLQMNSLKPEDTAVYYCYADYEDRDSPVNGSWGQGTQVTVSS
notes: Mutant of 7F6; also called 7F6 + F106V; not shown: C-terminal Flag- and His-tags of E. coli constructs
Take B2: the half-maximal inhibitory concentration (IC50) in experiment [1] came out at 0.24 nM.

B3: ID-6V (VHH)
VHH: EVQLVESGGGLVQAGGSTRLTCLASGSISSINVIGWYRQAPGKQRELVAMIGRGEGANYGDFAKGRFTISRDNSKNTVYLQMNSLKPEDTAVYYCYADYEDRDSPHNGSWGQGTQVTVSS
notes: Mutant of 7F6; also called 7F6 + F106H; not shown: C-terminal Flag- and His-tags of E. coli constructs
For B3, the IC50 in experiment [1] stood at 0.22 nM.

B4: ID-47V (VHH)
VHH: EVQLVESGGGLVQAGGSTRLTCLASGSISSINVIGWYRQAPGKQRELVAMIGRGEGANYGDFAKGRFTISRDNSKNTVYLQMNSLKPEDTAVYYCYADYEDRDSPINGSWGQGTQVTVSS
notes: Mutant of 7F6; also called 7F6 + F106I; not shown: C-terminal Flag- and His-tags of E. coli constructs
With B4, the 50% inhibitory concentration (IC50) in experiment [1] worked out at 0.27 nM.

B5: ID-40V (VHH)
VHH: EVQLVESGGGLVQAGGSTRLTCLASGSISSINVIGWYRQAPGKQRELVAMIGRGEGANYGDFAKGRFTISRDNSKNTVYLQMNSLKPEDTAVYYCYADYEDHDSPHNGSWGQGTQVTVSS
notes: Mutant of 7F6; also called 7F6 + R102H, F106H; not shown: C-terminal Flag- and His-tags of E. coli constructs
In the case of B5, the IC50 in experiment [1] is 0.21 nM.

B6: ID-49V (VHH)
VHH: EVQLVESGGGLVQAGGSTRLTCLASGSISSINVIGWYRQAPGKQRELVAMIGRGEGANYGDFAKGRFTISRDNSKNTVYLQMNSLKPEDTAVYYCYADYEDRDSPTNGSWGQGTQVTVSS
notes: Mutant of 7F6; also called 7F6 + F106T; not shown: C-terminal Flag- and His-tags of E. coli constructs
As to B6, the IC50 in experiment [1] was determined as 0.31 nM.

B7: 4D3 (VHH)
VHH: EVQLVESGGGSVQAGESLTLSCVASISTFSQNAMGWFRQAAGKRRESVARISSSGNVGYTDAVKGRFTMSRDNAKKTVYLQMNSLKPEDTAVYYCNAYSMSGELAAPWGQGTQVTVSS
notes: Llama ICVD from library 46-3, produced in E. coli; also called VIL-4D3; not shown: C-terminal Flag and 6xHis tags from vector pMEK222
In the case of B7, the “IC50 of inhibition of IL-6-induced TF-1 cell proliferation” value in experiment [2] was determined as 26 nM. Also, the “Ratio Cyno IC50/human IC50 (title: human IC50 divided by cynomolgous IC50)” value in experiment [3] was 1.9. Moreover, the half-maximal inhibitory concentration (IC50) in experiment [4] is 0.691 nM; in experiment [5], 0.372 nM; in experiment [6] it was 0.66 nM.

B8: 5G9 (VHH)
VHH: EVQLVESGGGLVQAGGSTRLTCKASGSIFNINSINVMAWYRQAPGKQRELVAIIGKGGGTNYADFVKGRFTISRDAAKNTVNLQMNSLKPEDTAVYYCYADYEDRDSPFNASWGQGTQVTVSS
notes: also called VIL-5G9; 'Wild type' 5G9; not shown: C-terminal Flag and 6xHis tags from vector pMEK222
For the molecule B8, in experiment [2], the “IC50 of inhibition of IL-6-induced TF-1 cell proliferation” value amounted to 0.9 nM. Besides, the “Potency in the TF-1 assay” value in experiment [7] was 0.23 not printed (nM in the filing's other TF-1 tables). Besides, the “Ratio Cyno IC50/human IC50 (title: human IC50 divided by cynomolgous IC50)” value in experiment [3] came to 0.2. The IC50 in experiment [8] is 0.09 nM; in experiment [4], 0.148 nM; in experiment [5], 0.804 nM; in experiment [6], 0.16 nM.

B9: ID-54V (VHH)
VHH: EVQLVESGGGLVQAGGSTRLTCKASGSIFNINSINVMAWYRQAPGKQRELVAIIGKGGGTNYADFVKGRFTISRDAAKNTVNLQMNSLKPEDTAVYYCYADYEDHDSPFNASWGQGTQVTVSS
notes: Mutant of 5G9; also called 5G9 + R105H; not shown: C-terminal Flag- and His-tags of E. coli constructs
For the molecule B9, the “Potency in the TF-1 assay” value in experiment [7] is 0.31 not printed (nM in the filing's other TF-1 tables). Also, the IC50 in experiment [8] came out at 0.15 nM.

B10: ID-53V (VHH)
VHH: EVQLVESGGGLVQAGGSTRLTCKASGSIFNINSINVMAWYRQAPGKQRELVAIIGKGGGTNYADFVKGRFTISRDAAKNTVNLQMNSLKPEDTAVYYCYADYEDRDSPHNASWGQGTQVTVSS
notes: Mutant of 5G9; also called 5G9 + F109H; not shown: C-terminal Flag- and His-tags of E. coli constructs
In the case of B10, in experiment [7], the “Potency in the TF-1 assay” value was 17.5 not printed (nM in the filing's other TF-1 tables). Further, the half-inhibitory concentration (IC50) in experiment [8] was determined as 0.3 nM.

B11: ID-55V (VHH)
VHH: EVQLVESGGGLVQAGGSTRLTCHASGSIFNINSINVMAWYRQAPGKQRELVAIIGKGGGTNYADFVKGRFTISRDAAKNTVNLQMNSLKPEDTAVYYCYADYEDRDSPFNASWGQGTQVTVSS
notes: Mutant of 5G9; also called 5G9 + K23H; not shown: C-terminal Flag- and His-tags of E. coli constructs
On to B11, for which, in experiment [8], the IC50 was 0.11 nM.

B12: ID-52V (VHH)
VHH: EVQLVESGGGLVQAGGSTRLTCKASGSIFNINSINVMAWYRQAPGKQRELVAIIGKGGGTNYADFVKGRFTISRDAAKNTVNLQMNSLKPEDTAVYYCYADYEDHDSPHNASWGQGTQVTVSS
notes: Mutant of 5G9; also called 5G9 + F109H, R105H; not shown: C-terminal Flag- and His-tags of E. coli constructs
In the case of B12, the IC50 in experiment [8] was 0.24 nM.

B13: ID-56V (VHH)
VHH: EVQLVESGGGLVQAGGSTRLTCKASGSISNINSINVMAWYRQAPGKQRELVAIIGKGGGTNYADFVKGRFTISRDAAKNTVNLQMNSLKPEDTAVYYCYADYEDRDSPFNASWGQGTQVTVSS
notes: Mutant of 5G9; also called 5G9 + F29S; not shown: C-terminal Flag- and His-tags of E. coli constructs
Regarding B13, in experiment [8], the IC50 was found to be 0.07 nM.

B14: ID-59V (VHH)
VHH: EVQLVESGGGLVQAGGSTRLTCKASGSIFNINSINVMAWYRQAPGKQRELVAIIGKGGGTNDADFVKGRFTISRDAAKNTVNLQMNSLKPEDTAVYYCYADYEDRDSPFNASWGQGTQVTVSS
notes: Mutant of 5G9; also called 5G9 + Y62D; not shown: C-terminal Flag- and His-tags of E. coli constructs
As to B14, the IC50 in experiment [8] was 0.11 nM.

B15: 3C12 (VHH)
VHH: EVQLVESGGGLAQLGGSLRLSCVASGNIFSSNTAGWFRQAPGKQREWVAGISIGGMPAYADSVKGRFTISRDNAKNTVYLQMNSLKPEDTAVYYCATGGTEYDYWGQGTQVTVSS
notes: Llama ICVD from library 37-3, produced in E. coli; also called VIL-3C12; not shown: C-terminal Flag and 6xHis tags from vector pMEK222
For the molecule B15, the “IC50 of inhibition of IL-6-induced TF-1 cell proliferation” value in experiment [2] is 44.6 nM. In addition, the “Ratio Cyno IC50/human IC50 (title: human IC50 divided by cynomolgous IC50)” value in experiment [3] was found to be 0.9. Besides, the half-inhibitory concentration (IC50) in experiment [4] is 3.53 nM; in experiment [5], 4.14 nM; in experiment [6] it was 1.89 nM.
